Laboratory results reported in PMC5422739.

B1: histidine tagged HTE20 (domain or fragment)
chain: GIPGAAVPGVVSPEAAAKAAAKAAKYGARPGVGVGGIPTYGVGAGGFPGFGVGVG
B2: HTE20 (20th exon of human tropoelastin) (domain or fragment)
chain: GIPGAAVPGVVSPEAAAKAAAKAAKYGARPGVGVGGIPTYGVGAGGFPGFGVGVG

Columns and labels:
[1] = molecular target: tag free LigB12 (amino acids 1,047–1,119 in LigB) (L. interrogans serovar Pomona); assay: SPR; Biacore 3000; tag free LigB12 immobilised on CM5 (about 1,000 RU); HTE truncates 0 to 5 μM injected in PBS at 30 μL/min, 25°C; 1:1 Langmuir model
[2] = molecular target: tag free LigB12 (amino acids 1,047–1,119 in LigB) (L. interrogans serovar Pomona); assay: other fluorescence titration; intrinsic tryptophan fluorescence of LigB12 (2 μM), excitation 295 nm, read at 315 nm, 25°C, PBS; HTE20 or HTE20N titrated 10 to 0.625 μM
[3] = molecular target: LigA on the surface of L. biflexa serovar Patoc ligA
[4] = molecular target: GST tagged LigB12 (amino acids 1,047–1,119 in LigB) (L. interrogans serovar Pomona); assay: ELISA; competitive; 5 μM GST-LigB4 or GST-LigB12 pre-incubated 1 h with HTE17-20, HTE20N or HTE20C (10 to 0.156 μM), then added to WI-38 cell monolayers at 37°C; HRP anti-GST
[5] = molecular target: GST tagged LigB4 (amino acids 307–403 in LigB) (L. interrogans serovar Pomona); assay: as above
[6] = molecular target: LigB12-5-12 chimera (L. interrogans serovar Pomona); assay: ELISA; tag-free LigB5/LigB12 and LigB7/LigB10 chimeras and wild-type domains coated (1 μM/well); 5 μM histidine tagged HTE17-20, HTE20 or HTE20N applied; anti-His detection
[7] = molecular target: LigB12-12-5 chimera (L. interrogans serovar Pomona); assay: as above
[8] = molecular target: tag-free LigB12 mutant D1061N (L. interrogans serovar Pomona); assay: ELISA; tag-free LigB12 wild type or point mutants coated (1 μM/well); His tagged HTE20 or HTE20N titrated 0 to 10 μM; anti-His detection
[9] = molecular target: tag-free LigB12 mutant E1088A (L. interrogans serovar Pomona); assay: as above
[10] = molecular target: tag-free LigB12 mutant F1054A (L. interrogans serovar Pomona); assay: as above
[11] = molecular target: tag-free LigB12 mutant D1066A (L. interrogans serovar Pomona); assay: as above

Binder	Kd [1] [nM]	koff [1] [s⁻¹]	kon [1] [M⁻¹ s⁻¹]	Kd [2] [nM]	inhibition of the adhesion of LigA-expressing L. biflexa (Patoc ligA) to WI-38 cells after pre-incubation with HTE20N, 10 to 0.156 μM; ELISA with hamster anti-L. biflexa sera [3] [%]	percent decrease of LigB12 binding to WI-38 cells at the highest concentration [4] [%]	percent decrease of LigB4 binding to WI-38 cells at the highest concentration [5] [%]	percent of wild-type LigB12 binding [6] [%]	percent of wild-type LigB12 binding [7] [%]	percent of wild-type LigB12 binding [8] [%]	Kd [9] [nM]	percent of wild-type LigB12 binding [10] [%]	percent of wild-type LigB12 binding [11] [%]
GIPGAAVPGVVSPEAAAKAAAKAAKYG (domain or fragment) [HTE20N (the first 27 residues of HTE20, amino acids 358–384 of HTE)]	780	0.0021	2700	820	58	51	54						
B1								80	90	32	870	15	26
B2	940	0.0032	3400	970									
GIPGAAVPGVVSPEAAAKAAAKAAKYG (domain or fragment) [histidine tagged HTE20N]								80	90	32	870	15	26
